Measurements published in patent US20180017572A1 (Hoffmann-La Roche, published 2018).

These binders were tested against T1, complement factor C1q (UniProt P02745 23-245; P02746 28-253; P02747 29-245) (assay: flow cytometry: BT-474 cells with 10 µg/mL antibody, then 10 µg/mL C1q, detected with PE-labeled anti-C1q antibody).
T1 construct: also called Clq; recombinant complement factor C1q
Description: About 3×10⁵ BT-474 cells were incubated with 10 μg/mL of indicated antibody on ice in RPMI 1640 supplemented with 10% FCS. After 30 min. incubation on ice 10 μg/mL C1q (Sigma Aldrich, Cat. No. C1740) was added. The incubation was continued thereafter for an additionally 20 min. on ice. After washing the cells were resuspended in 200 μL medium and counterstained with a PE-labeled anti-C1q antibody (Cedarlane, Cat. No. CL7611PE-SP). After an incubation time of 30 min. on ice cells were washed twice and analyzed on a FACS Canto

T1 sequence (P02745 23-245 limits assumed, chain 1 of 3): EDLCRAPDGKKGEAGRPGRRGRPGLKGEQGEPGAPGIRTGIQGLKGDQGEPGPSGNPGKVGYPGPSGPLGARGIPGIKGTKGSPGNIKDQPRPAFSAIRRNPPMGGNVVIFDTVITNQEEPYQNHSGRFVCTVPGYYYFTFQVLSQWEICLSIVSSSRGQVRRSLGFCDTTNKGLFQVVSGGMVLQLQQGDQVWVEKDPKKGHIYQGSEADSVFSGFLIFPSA
T1 sequence (P02746 28-253 limits assumed, chain 2 of 3): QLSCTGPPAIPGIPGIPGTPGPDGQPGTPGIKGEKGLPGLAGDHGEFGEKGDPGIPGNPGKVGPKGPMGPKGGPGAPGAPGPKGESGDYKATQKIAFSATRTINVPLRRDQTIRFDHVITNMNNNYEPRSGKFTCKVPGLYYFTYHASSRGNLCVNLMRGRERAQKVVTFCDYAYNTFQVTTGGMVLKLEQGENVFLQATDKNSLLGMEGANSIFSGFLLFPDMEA
T1 sequence (P02747 29-245 limits assumed, chain 3 of 3): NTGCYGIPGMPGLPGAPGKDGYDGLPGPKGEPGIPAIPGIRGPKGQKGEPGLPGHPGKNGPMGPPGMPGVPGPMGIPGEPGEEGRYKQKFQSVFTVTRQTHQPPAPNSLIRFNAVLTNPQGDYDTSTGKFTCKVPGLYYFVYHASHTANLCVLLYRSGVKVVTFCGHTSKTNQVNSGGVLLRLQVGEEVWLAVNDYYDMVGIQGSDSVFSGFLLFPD

Binder	PE-signal (geomean) [geomean PE-signal]
bispecific anti-HER2 antibody, common light chain (bispecific antibody, human IgG1, kappa, Knob-into-hole bispecific antibody with a common light chain) light: DIQMTQSPSSLSASVGDRVTITCKASQDVSTAVAWYQQKPGKAPKLLIYSASFRYTGVPSRFSGSRSGTDFTLTISSLQPEDFATYYCQQHYTTPPTFGQGTKVEIKRTVAAPSVFIFPPSDEQLKSGTASVVCLLNNFYPREAKVQWKVDNALQSGNSQESVTEQDSKDSTYSLSSTLTLSKADYEKHKVYACEVTHQGLSSPVTKSFNRGEC heavy 1: not shown heavy 2: not shown	1440
bispecific anti-HER2 antibody, common light chain, glycoengineered (bispecific antibody, human IgG1, kappa, The glycan change is not described) light: DIQMTQSPSSLSASVGDRVTITCKASQDVSTAVAWYQQKPGKAPKLLIYSASFRYTGVPSRFSGSRSGTDFTLTISSLQPEDFATYYCQQHYTTPPTFGQGTKVEIKRTVAAPSVFIFPPSDEQLKSGTASVVCLLNNFYPREAKVQWKVDNALQSGNSQESVTEQDSKDSTYSLSSTLTLSKADYEKHKVYACEVTHQGLSSPVTKSFNRGEC heavy 1: not shown heavy 2: not shown	1040
bispecific anti-HER2 antibody, CrossMab format (bispecific antibody, human IgG1, kappa, CrossMab format with four different chains) heavy 1: not shown heavy 2: not shown light 1: DIQLTQPPSVSVAPGQTARITCGASQDVSTAVAWYQQKPGQAPVLVVYSASFLYSGIPSRFSGSRSGTDFTLTISRVEAGDEADYYCQQHYTTPPTFGTGTKVTVLRTVAAPSVFIFPPSDEQLKSGTASVVCLLNNFYPREAKVQWKVDNALQSGNSQESVTEQDSKDSTYSLSSTLTLSKADYEKHKVYACEVTHQGLSSPVTKSFNRGEC light 2: DIQMTQSPSSLSASVGDRVTITCKASQDVSIGVAWYQQKPGKAPKLLIYSASYRYTGVPSRFSGSGSGTDFTLTISSLQPEDFATYYCQQYYIYPYTFGQGTKVEIKSSASTKGPSVFPLAPSSKSTSGGTAALGCLVKDYFPEPVTVSWNSGALTSGVHTFPAVLQSSGLYSLSSVVTVPSSSLGTQTYICNVNHKPSNTKVDKKVEPKSC	489
